# In article PMC4335062, “Data-Driven Prediction and Design of bZIP Coiled-Coil Interactions” (PLoS Computational Biology, 2015):
# Several values for one entry are separate records, joined by “and”; a condition that tells them apart may be missing. Equal values may be shown once. Where no end group is shown, it is not given here.
# Tests used:
# [1] = target: the molecule itself; assay: FRET or BRET; direct-binding FRET of the designed peptide with itself (row 'homodimer'; dimer to monomers); acceptor-labelled design titrated into donor-labelled design by note 1 of the tables; 4 °C
# ATF6B = ATF6B (Homo sapiens, UniProt Q99941); assay: FRET or BRET; direct-binding FRET in 384-well plates; rhodamine-labelled design (acceptor) titrated 0 to 1 uM into 10 nM fluorescein-labelled bZIP (donor); 150 mM KCl, 50 mM potassium phosphate pH 7.4, 0.1% Tween-20, 0.1% BSA; 4 °C
# FOS = FOS (Homo sapiens, UniProt P01100); assay: as above
# MAFG = MAFG (Homo sapiens, UniProt O15525); assay: as above
# BACH1 = BACH1 (Homo sapiens, UniProt O14867); assay: as above
# MAFF (human) = MAFF (human) (UniProt Q9ULX9); assay: as above
# NFE2L3 (human) = NFE2L3 (human) (UniProt Q9Y4A8); assay: as above
# MAFB = MAFB (Homo sapiens, UniProt Q9Y5Q3); assay: as above
# MAF = MAF (Homo sapiens, UniProt O75444); assay: as above
# NFIL3 (human) = NFIL3 (human) (UniProt Q16649); assay: as above
# [2] = target: the molecule itself; assay: FRET or BRET; direct-binding FRET of the designed peptide with itself (row 'homodimer'; dimer to monomers); acceptor-labelled design titrated into donor-labelled design by note 1 of the tables; 37 °C
# [3] = target: ATF5-d1 labeled at the C-terminus; assay: FRET or BRET; direct-binding FRET of the designed peptide with itself (row 'homodimer'; dimer to monomers); acceptor-labelled design titrated into donor-labelled design by note 1 of the tables; 23 °C
# [4] = target: Activating Transcription Factor (ATF) 3 (human) (UniProt P18847); assay: FRET or BRET; direct-binding FRET in 384-well plates; rhodamine-labelled design (acceptor) titrated 0 to 1 uM into 10 nM fluorescein-labelled bZIP (donor); 150 mM KCl, 50 mM potassium phosphate pH 7.4, 0.1% Tween-20, 0.1% BSA; 4 °C
# BACH2 = BACH2 (Homo sapiens, UniProt Q9BYV9); assay: as above
# Chain of BACH2 (Q9BYV9 whole entry): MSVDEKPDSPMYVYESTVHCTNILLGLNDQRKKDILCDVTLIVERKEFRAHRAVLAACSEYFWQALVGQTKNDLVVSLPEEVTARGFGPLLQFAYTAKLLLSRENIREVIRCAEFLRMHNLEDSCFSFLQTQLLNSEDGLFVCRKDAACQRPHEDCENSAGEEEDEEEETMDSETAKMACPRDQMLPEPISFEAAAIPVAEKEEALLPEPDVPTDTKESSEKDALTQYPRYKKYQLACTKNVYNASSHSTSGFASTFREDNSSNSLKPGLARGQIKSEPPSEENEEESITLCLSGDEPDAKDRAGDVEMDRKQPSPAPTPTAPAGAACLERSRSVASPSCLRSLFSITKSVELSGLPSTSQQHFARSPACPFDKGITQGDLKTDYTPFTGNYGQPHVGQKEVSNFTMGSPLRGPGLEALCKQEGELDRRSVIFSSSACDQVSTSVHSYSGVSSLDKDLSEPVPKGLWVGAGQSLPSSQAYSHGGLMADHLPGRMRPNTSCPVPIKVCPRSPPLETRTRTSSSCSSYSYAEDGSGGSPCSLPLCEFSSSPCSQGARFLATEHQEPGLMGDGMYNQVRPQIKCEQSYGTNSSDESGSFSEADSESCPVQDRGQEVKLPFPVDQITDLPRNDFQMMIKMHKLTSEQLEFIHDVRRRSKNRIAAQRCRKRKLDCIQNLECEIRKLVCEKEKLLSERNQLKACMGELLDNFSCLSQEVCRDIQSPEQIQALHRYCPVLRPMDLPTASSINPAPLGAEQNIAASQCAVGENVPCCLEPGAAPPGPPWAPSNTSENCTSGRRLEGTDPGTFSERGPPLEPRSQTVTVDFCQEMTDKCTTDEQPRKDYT
# Chain of NFIL3 (human) (Q16649 whole entry): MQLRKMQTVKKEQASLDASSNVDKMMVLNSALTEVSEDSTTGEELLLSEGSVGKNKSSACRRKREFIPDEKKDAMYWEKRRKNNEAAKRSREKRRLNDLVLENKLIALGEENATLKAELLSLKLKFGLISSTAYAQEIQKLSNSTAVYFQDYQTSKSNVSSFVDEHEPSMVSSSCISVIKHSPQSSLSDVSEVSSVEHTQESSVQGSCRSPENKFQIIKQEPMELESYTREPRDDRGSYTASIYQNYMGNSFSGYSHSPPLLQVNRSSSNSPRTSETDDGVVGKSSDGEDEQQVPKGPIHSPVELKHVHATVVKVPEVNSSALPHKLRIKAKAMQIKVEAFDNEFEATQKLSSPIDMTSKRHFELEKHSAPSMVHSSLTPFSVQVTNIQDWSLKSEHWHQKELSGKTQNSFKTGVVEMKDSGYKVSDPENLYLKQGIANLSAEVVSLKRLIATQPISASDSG
# Chain of MAFF (human) (Q9ULX9 whole entry): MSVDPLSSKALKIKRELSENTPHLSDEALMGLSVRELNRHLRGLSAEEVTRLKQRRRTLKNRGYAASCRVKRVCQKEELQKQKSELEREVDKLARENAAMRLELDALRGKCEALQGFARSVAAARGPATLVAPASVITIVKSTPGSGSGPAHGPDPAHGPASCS
# Chain of MAFB (Q9Y5Q3 whole entry): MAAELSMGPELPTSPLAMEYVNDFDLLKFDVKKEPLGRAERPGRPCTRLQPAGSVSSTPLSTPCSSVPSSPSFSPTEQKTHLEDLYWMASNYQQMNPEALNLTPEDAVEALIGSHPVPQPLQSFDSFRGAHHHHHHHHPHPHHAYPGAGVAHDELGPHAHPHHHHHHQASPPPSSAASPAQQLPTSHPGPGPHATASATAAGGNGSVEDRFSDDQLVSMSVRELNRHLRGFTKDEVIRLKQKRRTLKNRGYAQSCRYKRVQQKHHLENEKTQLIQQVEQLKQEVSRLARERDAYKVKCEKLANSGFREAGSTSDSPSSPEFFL
# Chain of MAFG (O15525 whole entry): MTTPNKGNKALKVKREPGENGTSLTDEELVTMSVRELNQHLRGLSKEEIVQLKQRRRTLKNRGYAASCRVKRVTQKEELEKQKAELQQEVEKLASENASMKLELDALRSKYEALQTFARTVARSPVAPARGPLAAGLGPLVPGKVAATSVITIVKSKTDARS
# Chain of Activating Transcription Factor (ATF) 3 (human) (P18847 whole entry): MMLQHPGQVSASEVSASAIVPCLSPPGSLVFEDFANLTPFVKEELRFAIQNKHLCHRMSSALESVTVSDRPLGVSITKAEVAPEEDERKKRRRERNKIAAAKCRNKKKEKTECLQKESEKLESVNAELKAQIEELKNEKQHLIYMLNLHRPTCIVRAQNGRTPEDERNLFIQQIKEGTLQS
# Chain of NFE2L3 (human) (Q9Y4A8 whole entry): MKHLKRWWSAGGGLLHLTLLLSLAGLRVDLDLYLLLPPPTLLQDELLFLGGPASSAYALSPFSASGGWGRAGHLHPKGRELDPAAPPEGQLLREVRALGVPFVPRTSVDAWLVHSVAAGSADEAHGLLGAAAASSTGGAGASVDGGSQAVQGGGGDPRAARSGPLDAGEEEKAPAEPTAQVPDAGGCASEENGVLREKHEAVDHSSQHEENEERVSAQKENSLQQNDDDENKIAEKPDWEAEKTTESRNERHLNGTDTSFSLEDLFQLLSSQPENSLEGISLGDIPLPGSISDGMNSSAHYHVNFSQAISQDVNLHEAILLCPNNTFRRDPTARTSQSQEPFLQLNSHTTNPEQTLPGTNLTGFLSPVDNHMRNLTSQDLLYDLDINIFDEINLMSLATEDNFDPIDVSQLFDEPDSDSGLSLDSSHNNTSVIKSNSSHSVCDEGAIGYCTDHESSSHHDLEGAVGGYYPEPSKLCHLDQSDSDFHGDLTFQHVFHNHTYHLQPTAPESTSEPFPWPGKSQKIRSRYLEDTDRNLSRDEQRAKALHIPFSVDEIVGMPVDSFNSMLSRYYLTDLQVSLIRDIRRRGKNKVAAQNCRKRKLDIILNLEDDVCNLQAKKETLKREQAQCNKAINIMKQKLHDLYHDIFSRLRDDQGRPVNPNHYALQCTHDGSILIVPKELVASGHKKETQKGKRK
# Chain of MAF (O75444 whole entry): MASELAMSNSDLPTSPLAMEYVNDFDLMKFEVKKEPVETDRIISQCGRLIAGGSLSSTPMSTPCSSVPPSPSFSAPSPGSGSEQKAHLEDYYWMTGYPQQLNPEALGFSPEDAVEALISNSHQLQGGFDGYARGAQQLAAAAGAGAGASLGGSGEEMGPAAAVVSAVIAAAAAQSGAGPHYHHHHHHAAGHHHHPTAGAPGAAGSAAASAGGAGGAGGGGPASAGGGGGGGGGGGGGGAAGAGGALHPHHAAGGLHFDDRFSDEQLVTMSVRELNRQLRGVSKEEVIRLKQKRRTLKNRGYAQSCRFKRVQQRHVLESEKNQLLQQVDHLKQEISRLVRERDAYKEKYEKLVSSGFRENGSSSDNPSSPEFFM
# Chain of ATF6B (Q99941 whole entry): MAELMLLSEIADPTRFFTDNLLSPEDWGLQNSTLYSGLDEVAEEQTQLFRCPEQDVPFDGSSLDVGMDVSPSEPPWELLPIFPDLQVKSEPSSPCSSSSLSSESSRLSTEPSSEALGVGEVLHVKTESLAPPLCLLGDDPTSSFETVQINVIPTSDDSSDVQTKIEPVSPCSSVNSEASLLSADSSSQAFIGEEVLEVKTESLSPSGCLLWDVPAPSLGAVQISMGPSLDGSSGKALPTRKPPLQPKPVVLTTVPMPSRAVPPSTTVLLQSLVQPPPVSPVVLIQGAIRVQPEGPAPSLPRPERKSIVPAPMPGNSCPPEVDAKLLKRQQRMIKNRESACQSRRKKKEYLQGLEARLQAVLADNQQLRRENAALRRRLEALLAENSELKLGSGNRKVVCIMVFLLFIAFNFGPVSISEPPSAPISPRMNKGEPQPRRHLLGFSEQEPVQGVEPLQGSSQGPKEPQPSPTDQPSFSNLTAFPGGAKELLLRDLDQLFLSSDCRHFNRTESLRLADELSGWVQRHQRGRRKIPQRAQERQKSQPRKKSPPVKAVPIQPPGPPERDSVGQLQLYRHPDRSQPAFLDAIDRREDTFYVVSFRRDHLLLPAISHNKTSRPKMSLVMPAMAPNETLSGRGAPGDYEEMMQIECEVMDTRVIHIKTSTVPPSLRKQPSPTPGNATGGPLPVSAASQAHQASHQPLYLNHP
# Chain of FOS (P01100 whole entry): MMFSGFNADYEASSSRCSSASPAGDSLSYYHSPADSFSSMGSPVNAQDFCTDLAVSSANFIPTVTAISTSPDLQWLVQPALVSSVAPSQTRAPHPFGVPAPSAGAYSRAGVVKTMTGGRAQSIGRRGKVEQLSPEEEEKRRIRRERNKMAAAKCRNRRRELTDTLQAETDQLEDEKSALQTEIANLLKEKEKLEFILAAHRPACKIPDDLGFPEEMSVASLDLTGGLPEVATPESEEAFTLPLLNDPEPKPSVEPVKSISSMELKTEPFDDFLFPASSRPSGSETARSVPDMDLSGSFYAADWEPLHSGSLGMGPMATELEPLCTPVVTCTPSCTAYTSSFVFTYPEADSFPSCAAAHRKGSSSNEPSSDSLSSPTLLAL
Binder,Kd [1] [µM],Kd (ATF6B) [µM],Kd (FOS) [µM],Kd (MAFG) [µM],Kd (BACH1) [µM],Kd (MAFF (human)) [µM],Kd (NFE2L3 (human)) [µM],Kd (MAFB) [µM],Kd (MAF) [µM],Kd (NFIL3 (human)),Kd [2],Kd [3] [µM],Kd [4] [µM],Kd (BACH2) [µM]
"ATF4-d1 labeled at the C-terminus (designed binder, also: C59 label by assay: Rhodamine Red C2-maleimide or fluorescein-5-maleimide, solubility linker after the His6 tag; added to the C-terminus for labeling; one molecule for the rhodamine- and the fluorescein-labelled form; the assay tells which label stood there; also called ATF4-d1-Rhodamine; ATF4-d1-FITC; source: E. coli RP3098, purified (Ni-NTA under denaturing conditions, reverse-phase HPLC)) GESKEYKKGSGSNQIKTLRTRLSKLRKDNLQLEKDIANLERKAKDLRAEKEQLEYELGC",0.001,1,1,1,> 5,> 5,1,> 5,> 5,0.0228 µM and 0.0233 µM and 0.0226 µM,1.82 µM and 1.11 µM and 2.52 µM,,,
"ATF5-d1 labeled at the C-terminus (designed binder, not fully specified) GESKEYKKGSGSKRIAYLRQRIAELRNENHVLESRIQRMEKEKDALQQDRDHLEYELGC(Rhodamine Red C2‑maleimide)",,,,,,,,,,,,1,> 5,> 5
